The data set addresses T1, MCPIP1 D141N (Regnase-1), full length (Homo sapiens, UniProt Q5D1E8 1-599, D141N).
T1 sequence: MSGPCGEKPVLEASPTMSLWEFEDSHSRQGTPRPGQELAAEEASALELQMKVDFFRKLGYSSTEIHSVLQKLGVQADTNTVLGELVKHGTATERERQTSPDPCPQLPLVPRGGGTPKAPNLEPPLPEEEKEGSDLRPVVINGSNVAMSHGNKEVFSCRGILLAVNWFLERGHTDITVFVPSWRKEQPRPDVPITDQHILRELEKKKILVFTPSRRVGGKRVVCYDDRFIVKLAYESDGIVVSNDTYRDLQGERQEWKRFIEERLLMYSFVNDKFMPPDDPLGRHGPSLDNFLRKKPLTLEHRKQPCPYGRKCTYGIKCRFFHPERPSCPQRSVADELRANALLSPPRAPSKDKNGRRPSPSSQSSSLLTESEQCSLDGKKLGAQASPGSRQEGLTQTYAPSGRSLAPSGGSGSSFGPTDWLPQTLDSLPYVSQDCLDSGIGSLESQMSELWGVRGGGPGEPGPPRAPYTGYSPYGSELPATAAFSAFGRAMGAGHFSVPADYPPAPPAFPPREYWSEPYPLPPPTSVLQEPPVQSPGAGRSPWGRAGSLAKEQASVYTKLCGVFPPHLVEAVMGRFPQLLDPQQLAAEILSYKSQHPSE
The data set is described as follows: EMSA; apparent Kd, Hill analysis; 1% agarose, TBE; 25 mM Tris-HCl pH 7.9, 150 mM NaCl, 5% glycerol, 2.5 mM MgCl2, 1 mM DTT, 0.5 mM EDTA, 0.05 mM ZnCl2, 25 C; oligo 2 nM (full length) or 20 nM (PIN, PIN-ZF). Conditions: protein: recombinant; tags: none stated (purified by ion exchange); chain copies: 2; label: 5' 6-FAM; hairpin.

For the molecule UGUUGUUCUCUACGAAGAACUGACA (structured_RNA) [mIL-6 82-106 5'FAM], the Kd turned out to be 394 ± 45 nM.

The record behind these values is PMC5943514, “Substrate specificity of human MCPIP1 endoribonuclease” (Scientific Reports, 2018).
